Residue numbers refer to the chain shown, from its start.
B1: anti-Nectin-2 monoclonal antibody clone 7 (antibody, V domains shown)
VH: DVNLVESGGGLVKPGGSLKLSCAASGFTFSRFTMSWVRQTPEKTLDWVATISSGGSYTYYPDSVKGRFTISRDNAKNTLYLQMSSLKSEDTAMYYCTRDRDFYGPYYAMDYWGQGTSVTVSS
VL: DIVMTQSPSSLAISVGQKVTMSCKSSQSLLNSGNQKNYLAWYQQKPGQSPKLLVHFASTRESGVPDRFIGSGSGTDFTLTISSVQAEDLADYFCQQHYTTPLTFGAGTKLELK
B2: anti-Nectin-2 monoclonal antibody clone 11 (antibody, V domains shown)
VH: EVQLQQSGTVLTRPGASVKMSCKASGYIFTSYWIHWVKQRPGQGLEWIGAVYPGNSDSNYNQKFKAKAKLTAVTSTSTAYMELSSLTSEDSAVYYCTKLVGTFDYWGQGTTLTVSS
VL: DIVMTQSQKFMSSSIGDRVSVTCKASQNVGINVVWYQQRAGQSPKTLIYSASYRYSGVPDRFTGSGSGTDFTLTISNVQSEDLAEYFCQQYNTNPFTFGSGTKLEIK

What was measured:
[1] = target: T1, Chlorocebus (African green monkey) Nectin-2 (Chlorocebus (African green monkey)); test: FACS binding; Vero cells
T1 chain: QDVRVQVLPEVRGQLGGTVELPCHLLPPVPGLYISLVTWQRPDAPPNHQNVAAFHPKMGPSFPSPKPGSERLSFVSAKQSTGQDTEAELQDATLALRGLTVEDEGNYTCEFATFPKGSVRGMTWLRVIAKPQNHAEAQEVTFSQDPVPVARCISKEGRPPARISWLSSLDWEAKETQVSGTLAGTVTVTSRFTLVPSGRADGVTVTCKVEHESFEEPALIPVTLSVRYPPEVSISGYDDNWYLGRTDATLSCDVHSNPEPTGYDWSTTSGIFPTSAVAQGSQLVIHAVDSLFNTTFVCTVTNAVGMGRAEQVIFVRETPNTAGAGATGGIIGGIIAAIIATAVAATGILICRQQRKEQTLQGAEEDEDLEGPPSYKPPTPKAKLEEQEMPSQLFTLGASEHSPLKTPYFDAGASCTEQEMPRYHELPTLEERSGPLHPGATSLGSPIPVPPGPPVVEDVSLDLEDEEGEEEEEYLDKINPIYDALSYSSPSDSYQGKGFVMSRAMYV

[2] = target: T2, cynomolgus (Cyno) monkey (Macaca fascicularis) Nectin-2 (cynomolgus monkey (Macaca fascicularis), UniProt A0A2K5U084 32-538); test: FACS binding; CHO cells expressing cyno Nectin-2
T2 chain: T1 chain with N47D, E70Q, G82R, I481V

EC50 [1]	EC50 [2]	Binder
0.23 nM	0.66 nM	B1
0.16 nM	0.2 nM	B2

From patent US20260116971A1 (published 2026)
